Data on three molecules can be found in patent US20220288204A1, “DOSAGE AND ADMINISTRATION OF ANTI-ERBB3 (HER3) MONOCLONAL ANTIBODIES TO TREAT TUMORS ASSOCIATED WITH NEUREGULIN 1 (NRG1) GENE FUSIONS” (ELEVATION ONCOLOGY, INC., priority 2021, published 2022).

One assay deals with OV-10-0050 PDX tumors. In words: HGSOC ovarian PDX model efficacy (CLU-NRG1). The settings on record: afatinib 5 mg/kg once daily, day 27. Type of assay: in vivo, mice. On the set-up: average tumor volume at the time of the last treatment: unit not given beside the values. From the text:
IHC characterization of the OV-10-0050 PDX model (FIG. 6A). H&E staining, WT1, and TP53 IHC (left to right). […] (FIG. 6B). Treatment was terminated on day 27 and animals were monitored for tumor regrowth until tumors reached maximum allowable size or until 90 days after treatment initiation. Results represent the mean tumor volume ±SEM. A zoom-in view on tumor volumes during the last 40 days of monitoring of seribantumab-treated groups (right). […] Change in the volume of individual tumors (day 27 vs. volume at start of treatment) (FIG. 6C).
Crushed PDX tumor samples were mixed with Matrigel (50%) and injected into the subcutaneous flank of 6-week-old female NSG (LUAD-0061AS3) or Balb/c nude (OV-10-0050) mice. When tumors reached approximately 100-150 mm3, mice were randomly assigned to groups of 5-8 and treatment was commenced. There were 2 mice per group with bilateral flank tumors for the protein phosphorylation/expression study in the LUAD-0061AS3 PDX model. Drugs were administered once, and then tumors were collected at 2, 24, and 168 hours posttreatment. Afatinib was administered by oral gavage once daily as a suspension (in 0.5% methylcellulose-0.4% Tween-80) on a 5-days-on and 2-days-off schedule. […] Mice were observed daily throughout the treatment period for signs of morbidity and mortality. Tumor length and width and animal weights were measured twice weekly. Tumor volume was calculated using the empirical formula V=length×width 2×0.52. The percentage change in tumor volume of each tumor was calculated using the formula [(V2−V1)/V1)]×100, where V1 is the starting tumor volume and V2 is the final tumor volume.
RT-PCR confirmed the presence of the CLU-NRG1 fusion. Xenograft tissue morphology and IHC markers (positive for WT1 and strong nuclear staining for TP53) were consistent with HGSOC histology (FIG. 6A; Kobel M, et al., Int. J. Gynecol. Pathol. 2016; 35:430-41). […] As with the above experiments in the NSCLC PDX model, the doses of seribantumab used here were lower than the dose that is used in patients. Treatment was terminated at day 27 and tumor growth was monitored for an additional 63 days (90 days after initiation of treatment or once tumors reached the maximum allowable size). The tumor volume as a function of time is illustrated in FIG. 6B, and the AUC was computed for each group to compare tumor volumes between groups at the last date of treatment. […] Forty-one days after treatment began, mice bearing vehicle- and afatinib-treated tumors were sacrificed because of the high tumor burden.

Another assay has as its system LUAD-0061AS3 cells. Kind of assay: Caspase 3/7 enzymatic activity in cell homogenates (apoptosis). The assay is classed as cell-based, human. Here is the method: (§1) MCF-7 cells were treated with the indicated concentrations of NRG1-b1 for 10 minutes, and then cell extracts were prepared and subjected to Western blotting for the indicated phosphorylated (p) or total (t) proteins (FIG. 2A). […] Data were analyzed by nonlinear regression using GraphPad Prism 8. There were four replicates of each condition and data represent the mean±SD. […] Cells were counted on the days indicated on the graph. Results represent the mean±SD of duplicates of each condition in one representative experiment. MDA-MB-175-VII (FIG. 2D) and LUAD-0061AS3 (FIG. 2E) cells were treated with the indicated concentrations of inhibitors for 48 hours, and then caspase 3/7 enzymatic activity was measured in cell homogenates. Carfilzomib (20S proteasome inhibitor) was used as a positive control for apoptosis. Results are the mean±SEM of three independent experiments in which each condition was assayed in three replicate determinations. The absence of an error bar for any data point indicates an error value too small to be represented on the scale used.
(§2) As a positive control for activation of caspase 3/7, 1 μmol/L carfilzomib was used.

Another assay has as its system MDA-MB-175-VII cells. The description is as above. Type of assay: cell-based, human. Here is the method:
as §1, §2

In a further assay the target is human ERBB3 (HER3) (human, UniProt P21860 20-1342). In words: cell-based or functional assay.
human ERBB3 (HER3), sequence (P21860 other isoform, or with tags, fused parts or gaps): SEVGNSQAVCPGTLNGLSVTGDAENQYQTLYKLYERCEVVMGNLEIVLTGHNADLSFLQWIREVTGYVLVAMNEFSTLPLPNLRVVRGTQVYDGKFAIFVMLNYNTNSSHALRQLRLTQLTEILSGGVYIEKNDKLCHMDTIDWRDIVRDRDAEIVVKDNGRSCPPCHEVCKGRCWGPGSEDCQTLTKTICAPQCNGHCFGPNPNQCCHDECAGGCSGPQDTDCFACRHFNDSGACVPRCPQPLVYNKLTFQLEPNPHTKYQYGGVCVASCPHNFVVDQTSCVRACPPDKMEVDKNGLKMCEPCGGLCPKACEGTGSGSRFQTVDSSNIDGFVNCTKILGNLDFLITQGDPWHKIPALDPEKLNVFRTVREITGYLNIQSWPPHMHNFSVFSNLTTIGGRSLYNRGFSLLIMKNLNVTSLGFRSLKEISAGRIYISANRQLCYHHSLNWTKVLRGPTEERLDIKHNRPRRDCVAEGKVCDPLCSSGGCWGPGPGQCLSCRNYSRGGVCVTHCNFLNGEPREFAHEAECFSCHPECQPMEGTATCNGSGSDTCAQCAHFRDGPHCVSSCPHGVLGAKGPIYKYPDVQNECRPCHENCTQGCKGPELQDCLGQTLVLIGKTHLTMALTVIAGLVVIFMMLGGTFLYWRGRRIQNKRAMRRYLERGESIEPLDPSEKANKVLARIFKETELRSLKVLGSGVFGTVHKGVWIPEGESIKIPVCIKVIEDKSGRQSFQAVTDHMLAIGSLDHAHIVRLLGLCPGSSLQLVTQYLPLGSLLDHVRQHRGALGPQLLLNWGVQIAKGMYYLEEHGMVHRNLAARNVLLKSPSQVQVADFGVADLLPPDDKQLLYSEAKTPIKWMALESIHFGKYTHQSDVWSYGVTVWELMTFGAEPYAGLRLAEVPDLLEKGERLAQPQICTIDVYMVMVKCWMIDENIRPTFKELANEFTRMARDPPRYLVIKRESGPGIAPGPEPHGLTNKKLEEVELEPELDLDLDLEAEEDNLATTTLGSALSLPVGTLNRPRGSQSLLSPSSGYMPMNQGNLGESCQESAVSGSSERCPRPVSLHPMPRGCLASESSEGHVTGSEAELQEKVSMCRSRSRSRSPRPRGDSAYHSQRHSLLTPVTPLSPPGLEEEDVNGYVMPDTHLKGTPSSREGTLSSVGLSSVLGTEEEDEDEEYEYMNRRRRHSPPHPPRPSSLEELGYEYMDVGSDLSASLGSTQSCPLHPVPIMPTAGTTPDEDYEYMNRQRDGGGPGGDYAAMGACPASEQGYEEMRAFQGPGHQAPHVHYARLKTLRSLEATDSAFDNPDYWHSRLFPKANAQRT
Setting [1] is: 1 μmol/L carfilzomib, positive control.

Turning to `CN(C)C/C=C/C(=O)Nc1cc2c(Nc3ccc(F)c(Cl)c3)ncnc2cc1O[C@H]1CCOC1` [afatinib], the “average tumor volume at the time of the last treatment” value in the assay on OV-10-0050 PDX tumors was 786.4±190.5. Moreover, the “caspase 3/7 activity” value in the assay on LUAD-0061AS3 cells (highest concentration used, 48 hours) worked out at 3.3±0.1 fold above control; in the assay with MDA-MB-175-VII cells (10 μmol/L, 48 hours), 14.1±3.6 fold above control.

In the case of `CC(C)C[C@H](NC(=O)[C@H](CCc1ccccc1)NC(=O)CN1CCOCC1)C(=O)N[C@@H](Cc1ccccc1)C(=O)N[C@@H](CC(C)C)C(=O)[C@@]1(C)CO1` [carfilzomib], the “caspase 3/7 activity” value with LUAD-0061AS3 cells (setting [1]) stood at 5.8±1.3 fold above control; with MDA-MB-175-VII cells (setting [1]), 16.6±1.9 fold above control.

B1: seribantumab (antibody, human IgG2, lambda, V domains shown)
VH: EVQLLESGGGLVQPGGSLRLSCAASGFTFSHYVMAWVRQAPGKGLEWVSSISSSGGWTLYADSVKGRFTISRDNSKNTLYLQMNSLRAEDTAVYYCTRGLKMATIFDYWGQGTLVTVSS
VL: QSALTQPASVSGSPGQSITISCTGTSSDVGSYNVVSWYQQHPGKAPKLIIYEVSQRPSGVSNRFSGSKSGNTASLTISGLQTEDEADYYCCSYAGSSIFVIFGGGTKVTVLG
For the molecule B1, in the assay with human ERBB3 (HER3), the “IC50 for growth inhibition, HBECp53 cells (nontumor, no NRG1 fusion, control), 96 h, AlamarBlue viability” value stood at 203 µmol/L; the “IC50 for growth inhibition, LUAD-0061AS3 cells (SLC3A2-NRG1 fusion), 96 h, AlamarBlue viability” value stood at 1.4 µmol/L; the “IC50 for growth inhibition, MCF-7 cells (no NRG1 fusion, control), 96 h, AlamarBlue viability” value was found to be 45.2 µmol/L; the “IC50 for growth inhibition, MDA-MB-175-VII cells (DOC4-NRG1 fusion), 96 h, AlamarBlue viability” value is 0.02 µmol/L. Moreover, in the assay with human ERBB3 (HER3), the “caspase 3/7 activity, LUAD-0061AS3 cells, highest concentration used, 48 h” value was found to be 4 fold above control and the “caspase 3/7 activity, MDA-MB-175-VII cells, 10 µmol/L, 48 h” value was found to be 12.7 fold above control.
